In paper PMC12534507:

Key:
[1] = molecular target: wild-type C-terminally Strep-tagged Derlin-1 (human) (UniProt Q9BUN8); test: cross-linking
[2] = molecular target: truncated human Derlin-1 (Derlin-1^Δ215-239) (human) (UniProt Q9BUN8); test: cryo-EM structure

| Substance | stoichiometry N [1] | stoichiometry N [2] |
| --- | --- | --- |
| wild-type C-terminally Strep-tagged Derlin-1 (from UniProt Q9BUN8 1-251) (natural protein) | 2 | – |
| truncated human Derlin-1 (Derlin-1^Δ215-239) (from UniProt Q9BUN8) (natural protein) | – | 6 |
